# Marks after values point to notes of the source that are not given here.
# B1: Protein II: IgG2-Fc linked to antiangiogenesis polypeptide EDSM-Y via a flexible linker; SEQ ID NO: 17 (protein)
# chain: ERKCCVECPPCPAPPVAGPSVFLFPPKPKDTLMISRTPEVTCVVVDVSHEDPEVQFNWYVDGVEVHNAKTKPREEQFNSTFRVVSVLTVVHQDWLNGKEYKCKVSNKGLPAPIEKTISKTKGQPREPQVYTLPPSREEMTKNQVSLTCLVKGFYPSDISVEWESNGQPENNYKTTPPMLDSDGSFFLYSKLTVDKSRWQQGNVFSCSVMHEALHNHYTQKSLSLSPGKGGGGSGGGGSGGGGSFQPVLHLVALNSPLSGGMRGIRGADFQCFQQARAVGLAGTFRAGGGGRGD
# Assays:
# Format in all cases: in vivo
# [1] = test system: xylene-induced ear swelling in mice; assay: Xylene-induced ear swelling in mice; details: for Swelling degree / PI: injection; for Swelling degree: 2 h after xylene, mice; for PI: ear swelling vs control
# Protocol: 80 Kunming mice were divided into 8 groups with 10 mice for each group and numbered. A physiological saline group was used as a blank control group, an aspirin group (200 mg/kg) was used as a positive control group, and fusion protein I, protein II, protein III, protein IV and protein V at high, medium and low doses (128, 32, 8 mg/kg) were used as experimental groups. Mice were administered once by injection, while EDSM needed to be administered twice a day for 5 consecutive days. The blank control group was given an equal volume of physiological saline. After the fifth day, 0.05 mL of xylene was applied to both sides of the right ears of the mice to induce inflammation, and the left ears were not applied and were normal ears. After 2 h, the mice were sacrificed by dislocation, and the ears were cut along the auricle. Ear pieces were taken with a puncher and weighed, and the swelling degree and swelling rate were calculated. Swelling degree=right ear piece weight-left ear piece weight, swelling rate=(swelling degree/left ear piece weight)×100%.
# [2] = test system: neovascularization in premature rat retinopathy model; assay: Neovascularization in premature rat retinopathy model (fluctuating oxygen-induced)
# Protocol: A fluctuating oxygen-induced animal model was adopted, and newborn rats (within 12 hours) spontaneously delivered on the same day were randomly divided into three groups: an oxygen model group, an oxygen treatment group, and a normal control group. The oxygen model was subdivided into three model subgroups, which were placed in a semi-closed oxygen chamber made of plexiglass together with the treatment group. The medical oxygen was introduced into the chamber, and the oxygen concentration was adjusted to 80%±2% with an oxygen meter. After 24 hours, nitrogen gas was introduced into the oxygen chamber, and then the oxygen concentration was rapidly adjusted to 10%±2% and maintained for 24 hours. […] The oxygen concentration was monitored 8 times a day, and the ambient temperature in the chamber was controlled to 23° C.±2° C. […]
# On day 14, after the rats was sacrificed with ether anesthesia, the eyeballs were removed and fixed in a 40 g/L paraformaldehyde solution for 24 hours. […] 10 sections were randomly selected from each eyeball to be stained with hematoxylin and eosin, and the nucleus of vascular endothelial cells that broke through the inner limiting membrane of the retina was counted (only the nucleus of vascular endothelial cells closely related to the inner limiting membrane were counted), and the average number of cells per section per eyeball was counted.
# [3] = test system: retinal blood vessels in OIR mice; assay: Retinal blood vessels in OIR mice; details: dose 64 μg, injected into the vitreous body on day 13, evaluated on day 17
# Description: Establishment of the OIR model: young mice and their mothers were exposed to 75% hyperoxic environment from day 7 to day 12 after birth of C57/B16 mice so that capillaries in the central retina rapidly disappeared. On day 12, the mice were returned to indoor air and the retinal blood vessels exposed to hyperoxia rapidly disappeared, which caused extensive abnormal neovascularization, and the central part of the retina remained largely avascular for a long time. After the blood vessels disappeared completely, the fusion protein (administration group, the doses of fusion protein I, protein II, protein III, protein IV, and protein V were all 64 μg) or physiological saline (negative group) was injected into the vitreous body on day 13. Retinal vessels were evaluated on day 17 (labeled as unclosed vessels, […] of Texas Red-labeled tomato lectin was injected into the left ventricle and cycled for 5 minutes).
# [4] = test system: corneal neovascularization in mice; assay: Corneal neovascularization induced by alkali burn in BALB/c mice (MVD, CD31)
# Description: 15 healthy male BALB/c mice with weight of 20-25 g were examined under a slit lamp microscope for the anterior segment of both eyes and the appendage to exclude ocular lesions. The eyes were given 0.3% loxacin eye drops 1 day before the preparation of alkali burn model, twice a day. After the mice were anesthetized by intraperitoneal injection of 1.8% Avertin, single-layer filter paper with a diameter of 2 mm was clamped with tweezers, and immersed in a 1 mol/L sodium hydroxide solution to reach a saturated state, and the excess liquid was removed. […]
# 15 mice were randomly divided into […], with 5 rats in each group. […] On day 14 after alkali burn, the neovascularization of the corneal in each group was photographed and recorded under the slit lamp microscope for photographing anterior segment of the eye. […] The blood was washed with physiological saline, and the eyeballs were fixed in 4% paraformaldehyde for 1.5 h, dehydrated in PBS containing 30% sucrose overnight, embedded in an OCT tissue freezing medium, stored in a refrigerator at −80° C., subjected to cryosection at […] and detected by immunohistochemistry for CD31 expression.
# Microvessel density (MVD) is an indicator for evaluating angiogenesis. […] The number of new blood vessels in the entire section was counted under a 10×20 microscope. […]
molecule,measurement,setting,value
B1,Swelling degree,[1]; 8 mg/kg,6.21 ± 0.23 mg
same,PI,[1]; 8 mg/kg,6.62%
same,Swelling degree,[1]; 32 mg/kg,5.18 ± 0.89 mg
same,PI,[1]; 32 mg/kg,22.11%
same,Swelling degree,[1]; 128 mg/kg,3.87 ± 0.45 mg
same,PI,[1]; 128 mg/kg,41.80%
same,inhibition of xylene-induced ear swelling,[1]; high doses,could significantly inhibit xylene-induced ear swelling
same,Nucleus number (nucleus count of vascular endothelial cells),"[2]; 100 μg intravitreal injection on day 7, counted on day 14, per section per eyeball",7.238 ± 1.194
same,nucleus counts of retinal vascular endothelial cells,"[2]; intravitreal injection, dose of 100, day 14, oxygen model group 27.452±2.110",7.238±1.194
same,Area (mm^2) occupied by neovascular clusters,[3],0.146 ± 0.011* mm^2
same,Reduce (%),[3],30.81%
same,Reduce (%),[3]; listed as protein II,30.81%
same,number of CD31-positive new blood vessels,[4]; compared with the control group,significantly reduced
same,MVD,"[4]; dose 64 μg, intravitreal injection, day 14 after alkali burn",24.64 ± 4.24

# From US11407811B2, “Fusion protein, preparation method therefor and use thereof” (JIANGSU RONGTAI BIOTECH CO., LTD., priority 2017, dated 2022)
